In paper PMC8549523, “Human AdV-20-42-42, a Promising Novel Adenoviral Vector for Gene Therapy and Vaccine Product Development” (Journal of Virology, 2021):

Biological target: hexon protein of HAdV-20-42-42 (human adenovirus HAdV-20-42-42 (strain …))
Assay: SPR; affinity and interaction half-life told as data not shown; CD46 immobilised, hexon as analyte
Details: both partners purified

B1: CD46 (receptor)
chain: CEEPPTFEAMELIGKPKPYYEIGERVDYKCKKGYFYIPPLATHTICDRNHTWLPVSDDACYRETCPYIRDPLNGQAVPANGTYEFGYQMHFICNEGYYLIGEEILYCELKGSVAIWSGKPPICEKVLCTPPPKIKNGKHTFSEVEVFEYLDAVTYSCDPAPGPDPFSLIGESTIYCGDNSVWSRAAPECKVVKCRFPVVENGKQISGFGKKFYYKATVMFECDKGFYLDGSDTIVCDSNSTWDPPVPKCLKVLPPSSTKPPALSHSVSTSSTTKSPASSASGPRPTYKPPVSNYPGYPKPEEGILDSLD
Kd: 13.5 µM
